Measured values published in CN105330739A.

Tests used:
[1] = molecular target: huVEGF 165 (human); test: indirect ELISA on coated huVEGF, antibody at 80 ng/ml
[2] = molecular target: huVEGF 165 (human); test: indirect ELISA on coated huVEGF, antibody at 0.128 ng/ml
[3] = molecular target: huVEGF 165 (human); test: indirect ELISA on coated huVEGF, antibody at 0.64 ng/ml
[4] = molecular target: huVEGF 165 (human); test: indirect ELISA, huVEGF coated at 0.5 ug/ml, four-parameter fit
[5] = molecular target: huVEGF 165 (human); test: indirect ELISA on coated huVEGF, antibody at 400 ng/ml
[6] = molecular target: huVEGF 165 (human); test: indirect ELISA on coated huVEGF, antibody at 16 ng/ml
[7] = molecular target: huVEGF 165 (human); test: indirect ELISA on coated huVEGF, antibody at 0.0256 ng/ml
[8] = molecular target: huVEGF 165 (human); test: indirect ELISA on coated huVEGF, antibody at 0.00512 ng/ml
[9] = molecular target: huVEGF 165 (human); test: indirect ELISA on coated huVEGF, antibody at 3.2 ng/ml

Sequence of huVEGF 165 (human) (chain, as listed by the source, form in doubt): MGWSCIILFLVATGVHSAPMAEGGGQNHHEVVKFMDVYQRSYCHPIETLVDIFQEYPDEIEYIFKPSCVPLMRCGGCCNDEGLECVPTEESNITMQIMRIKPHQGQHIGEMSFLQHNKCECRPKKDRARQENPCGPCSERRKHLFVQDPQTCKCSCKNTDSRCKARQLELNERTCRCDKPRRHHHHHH

B1: NevegiMab抗体 (antibody, V domains shown)
VH: EVKLQESGPELKKPGETVKISCKASGYTFTNYGLNWVKQAPGKGLKWMGWINTYTGEPTYADDFKGRFAFSLETSASTAYLQINNLKNEDMATYFCAKYGITYEWYFDVWGAGTTVTVSS
VL: DIVLTQSTSSLSASLGDRVTISCRASQDISNSLNWYQQKPNGTVILLIYYTSRLHSGVPSRFSGSGSGAVYSLTISDLEQEDIATYFCQQGNTFPWTFGGGTKLEIKR
**Q.** Which OD450 复孔1 [1] does the source give for B1 here?
**A.** The OD450 复孔1 was 3.33 OD450.

**Q.** What about the OD450 复孔2 [1] of the same binder?
**A.** The OD450 复孔2 was 3.31 OD450.

**Q.** What about the OD平均 [1] of the same binder?
**A.** Its OD平均 is 3.32 OD450.

**Q.** What about the OD450 复孔1 [2] of the same binder?
**A.** The OD450 复孔1 was 0.208 OD450.

**Q.** And the OD450 复孔2 [2]?
**A.** Its OD450 复孔2 is 0.214 OD450.

**Q.** And the OD平均 [2]?
**A.** Its OD平均 is 0.21 OD450.

**Q.** What about the OD450 复孔1 [3] of the same binder?
**A.** The OD450 复孔1 was 0.572 OD450.

**Q.** And the OD450 复孔2 [3]?
**A.** Its OD450 复孔2 is 0.614 OD450.

**Q.** And the OD平均 [3]?
**A.** Its OD平均 is 0.59 OD450.

**Q.** And the EC50 [4]?
**A.** Its EC50 is 0.02 nM.

**Q.** What about the OD450 复孔1 [5] of the same binder?
**A.** Its OD450 复孔1 is 3.53 OD450.

**Q.** And the OD450 复孔2 [5]?
**A.** The OD450 复孔2 was 3.44 OD450.

**Q.** What about the OD平均 [5] of the same binder?
**A.** The OD平均 was 3.49 OD450.

**Q.** And the OD450 复孔1 [6]?
**A.** The OD450 复孔1 was 3 OD450.

**Q.** What about the OD450 复孔2 [6] of the same binder?
**A.** The OD450 复孔2 was 2.9 OD450.

**Q.** What about the OD平均 [6] of the same binder?
**A.** The OD平均 was 2.95 OD450.

**Q.** What about the OD450 复孔1 [7] of the same binder?
**A.** Its OD450 复孔1 is 0.132 OD450.

**Q.** What about the OD450 复孔2 [7] of the same binder?
**A.** Its OD450 复孔2 is 0.135 OD450.

**Q.** What about the OD平均 [7] of the same binder?
**A.** Its OD平均 is 0.13 OD450.

**Q.** And the OD450 复孔1 [8]?
**A.** Its OD450 复孔1 is 0.115 OD450.

**Q.** And the OD450 复孔2 [8]?
**A.** Its OD450 复孔2 is 0.118 OD450.

**Q.** What about the OD平均 [8] of the same binder?
**A.** The OD平均 was 0.12 OD450.

**Q.** And the OD450 复孔1 [9]?
**A.** Its OD450 复孔1 is 1.83 OD450.

**Q.** What about the OD450 复孔2 [9] of the same binder?
**A.** The OD450 复孔2 was 1.92 OD450.

**Q.** And the OD平均 [9]?
**A.** The OD平均 was 1.87 OD450.
